Test results published in US6630345B2 (New York University, dated 2003).

Target: recombinant full-length calcium-independent receptor of α-latrotoxin (CIRL) expressed in COS cells (rat)
Sequence (O88917 other isoform, or with tags, fused parts or gaps limits assumed): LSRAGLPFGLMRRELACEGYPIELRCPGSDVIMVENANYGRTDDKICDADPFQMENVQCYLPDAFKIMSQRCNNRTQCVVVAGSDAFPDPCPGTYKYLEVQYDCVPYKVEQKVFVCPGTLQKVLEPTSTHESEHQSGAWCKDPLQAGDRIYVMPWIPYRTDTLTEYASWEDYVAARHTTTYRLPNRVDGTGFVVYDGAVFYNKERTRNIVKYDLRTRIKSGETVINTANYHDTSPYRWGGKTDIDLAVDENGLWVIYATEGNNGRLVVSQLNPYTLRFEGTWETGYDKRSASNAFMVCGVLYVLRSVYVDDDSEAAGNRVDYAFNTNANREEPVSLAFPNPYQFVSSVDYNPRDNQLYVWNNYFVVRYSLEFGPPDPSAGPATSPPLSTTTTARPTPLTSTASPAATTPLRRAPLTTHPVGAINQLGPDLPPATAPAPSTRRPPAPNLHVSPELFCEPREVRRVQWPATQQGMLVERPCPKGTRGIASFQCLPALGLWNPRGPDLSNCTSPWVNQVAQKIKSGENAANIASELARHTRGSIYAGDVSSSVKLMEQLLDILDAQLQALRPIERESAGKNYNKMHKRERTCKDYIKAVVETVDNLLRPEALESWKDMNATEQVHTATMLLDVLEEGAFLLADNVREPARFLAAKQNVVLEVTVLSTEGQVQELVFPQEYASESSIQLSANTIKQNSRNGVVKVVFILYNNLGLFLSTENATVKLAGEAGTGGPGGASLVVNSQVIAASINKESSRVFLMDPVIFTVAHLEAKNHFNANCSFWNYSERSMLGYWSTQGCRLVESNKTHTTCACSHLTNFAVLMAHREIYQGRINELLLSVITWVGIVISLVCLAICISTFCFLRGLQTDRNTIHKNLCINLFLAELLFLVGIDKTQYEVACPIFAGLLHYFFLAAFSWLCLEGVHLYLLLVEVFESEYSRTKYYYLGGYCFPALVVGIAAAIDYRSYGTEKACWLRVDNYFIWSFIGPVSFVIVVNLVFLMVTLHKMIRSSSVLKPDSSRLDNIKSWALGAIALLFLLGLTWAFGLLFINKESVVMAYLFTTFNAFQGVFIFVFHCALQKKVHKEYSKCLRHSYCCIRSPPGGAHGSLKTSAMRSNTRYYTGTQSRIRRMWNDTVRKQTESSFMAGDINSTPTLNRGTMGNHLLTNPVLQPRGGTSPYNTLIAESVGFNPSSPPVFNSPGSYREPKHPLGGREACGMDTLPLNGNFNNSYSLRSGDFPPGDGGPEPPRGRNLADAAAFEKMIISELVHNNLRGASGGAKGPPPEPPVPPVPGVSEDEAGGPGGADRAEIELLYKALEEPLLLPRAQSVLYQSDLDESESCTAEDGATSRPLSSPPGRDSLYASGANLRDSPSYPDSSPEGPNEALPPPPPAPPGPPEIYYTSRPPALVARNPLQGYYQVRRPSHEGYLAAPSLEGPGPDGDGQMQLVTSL

B1: α-latrotoxin (ligand)
chain: EGEDLTLEEKAEICSELELQQKYVDIASNIIGDLSSLPIAGKIAGTIAAAAMTATHVASGRLDIEQTLLGCSDLPFDQIKEVLENRFNEIDRKLDSHSAALEEITKLVEKSISVVEKTRKQMNKRFDEVMKSIQDAKVSPIISKINNFARYFDTEKERIRGLKLNDYILKLEEPNGILLHFKESRTPTDDSLQAPLFSIIEEGYAVPKSIDDELAFKVLYALLYGTQTYVSVMFFLLEQYSFLANHYYEKGYLEKYDEYFNSLNNVFLDFKSSLVGTGTSNNEGLLDRVLQVLMTVKNSEFLGLEKNGVDEMLNEKINLFNKIKEEIEGKQKMTLSETPENFAQISFDKDITTPIGDWRDGREVRYAVQYASETLFSKISHWSDPVSVREKACPTLRMPVDQTRRNVLVFRKFDSSKPQLVGEITPYLSNFIDIDRDLYNAASNPDSAVGFKEFTKLNYDGANIRATFDHGRTVFHAAAKSGNDKIMFGLTFLAKSTELNQPDKKGYTPIHVAADSGNAGIVNLLIQRGVSINSKTYHFLQTPLHLAAQRGFVTTFQRLMESPEININERDKDGFTPLHYAIRGGERILEAFLNQISIDVNAKSNTGLTPFHLAIIKNDWPVASTLLGSKKVDINAVDENNITALHYAAILGYLETTKQLINLKEINANVVSSPGLLSALHYAILYKHDDVASFLMRSSNVNVNLKALGGITPLHLAVIQGRKQILSLMFDIGVNIEQKTDEKYTPLHLAAMSKYPELIQILLDQGSNFEAKTNSGATPLHLATFKGKSQAALILLNNEVNWRDTDENGQMPIHGAAMTGLLDVAQAIISIDATVVDIEDKNSDTPLNLAAQNSHIDVIKYFIDQGADINTRNKKGLAPLLAFSKKGNLDMVKYLFDKNANVYIADNDGMNFFYYAVQNGHLNIVKYAMSEKDKFEWSNTDNNRRDECPNEECAISHFAVCDAVQFDRIEIVKYFVGTLGNFAICGPLHQAARYGHLDIVKYLVEEEFLSVDGSKTDTPLCYASENGHFTVVQYLVSNGAKVNHDCGNGMTAIDKAITKNHLQVVQFLAANGVDFRRKNSRGTTPFLTAVAENALHIAEYLIREKRQDININEQNVDKDTALHLAVYYKNLQMIKLLIKYGIDVTIRNAYDKTALDIAIDAKFSNIVEYLKTKSGKFRR
modifications: radioactively labeled with 125I by chloramine T procedure in the binding and immunoprecipitation assays; coupled to Sepharose in the affinity experiments
B1 was tested, and the Kd was 0.16 nM.
